Laboratory results from patent publication US20030215854, “Detection of DNA-binding proteins” (published 2003).

Experiments:
NF-kB p50 [1] = target: T1, NF-kB p50 (UniProt P19838 P19838:1-433); test: bead capture with anti-p50 antibody, Luminex; dose dependent; 10 mM Tris pH 7.5, 50 mM NaCl, 2 mM KCl, 2 mM MgCl2, poly dI-dC, room temperature; conditions: tags: Promega E3770; chain copies: 2; duplex with single-stranded 3' tag
Method: P04 Kbfor and KBrev were annealed by first diluting 100 uM oligonucleotide stocks into annealing buffer (40 mM Tris pH 7.5, 100 mM NaCl, and 1 mM EDTA), to give a ratio of 20 nM P04 Kbfor: 1 uM KBrev. 100 ul of the oligonucleotide mix was then heated to 95° C. for 1 minute, and cooled linearly to room temperature over a period of 45 minutes. 1 ul of the annealed mixture containing detection duplexes displaying a single stranded tag sequence was added to 19 ul of transcription factor binding buffer (10 mM tris pH 7.5, 50 mM NaCl, 2 mM KCl, 2 mM MgCl2) containing 250 ng poly dI-dC, and 0.5% bovine serum albumin (fraction V) and incubated with varying amounts of NF-kB P50 protein for 15 minutes at room temperature. 1800 beads suspended in 25 ul of transcription factor binding buffer containing 0.35% BSA was added to appropriate reactions and incubated 30 minutes at room temperature. Following the hybridization of DNA binding protein-detection duplex complexes to bead surfaces, 25 ul of transcription factor binding buffer containing (0.1 ug) of NF-kB P50 specific primary antibody (Santa Cruz Biotechnolgy Cat #SC-114) was added to the detection duplex-sample-bead mix and incubated for 20 minutes at room temperature in the dark while shaking. […] 25 ul of each assay were read using the Luminex 100 instrumentation.

NF-kB p50 [2] = target: T1, NF-kB p50; test: protection from lambda exonuclease, signal approx 3600 fluorescent units with p50; poly dI-dC; conditions: tags: Promega E3770; chain copies: 2; label: 3' biotin on KBrev; duplex with single-stranded 3' tag

T1 sequence (P19838 1-433, one chain of several): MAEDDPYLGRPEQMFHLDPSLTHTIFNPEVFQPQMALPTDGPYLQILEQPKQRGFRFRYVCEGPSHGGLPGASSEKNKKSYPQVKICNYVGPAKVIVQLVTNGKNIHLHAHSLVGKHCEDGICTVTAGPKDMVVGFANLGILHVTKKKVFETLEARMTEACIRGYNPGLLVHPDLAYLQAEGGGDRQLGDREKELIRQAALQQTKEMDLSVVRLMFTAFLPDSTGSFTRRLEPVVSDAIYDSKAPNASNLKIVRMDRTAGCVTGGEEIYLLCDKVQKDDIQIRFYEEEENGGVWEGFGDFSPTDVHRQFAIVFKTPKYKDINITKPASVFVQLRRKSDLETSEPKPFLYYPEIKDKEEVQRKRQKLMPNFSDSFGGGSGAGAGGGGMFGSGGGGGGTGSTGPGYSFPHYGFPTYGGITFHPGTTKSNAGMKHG

B1: PO4 Kbfor/KBrev (dsDNA)
DNA 1: AGTTGAGGGGATCCCCAGGAGCGGCTTATCGGTCTATTCAACTCCCCTAGGGG
DNA 2: TCCTGGGGATCCCCTCAACT
modifications: 5' phosphate on Kbfor
- binding result (NF-kB p50 [1]): binds

B2: PO4 Kbfor/biotinKBrev (dsDNA)
DNA 1: B1 DNA 1
DNA 2: TCCTGGGGATCCCCTCAACT
modifications: 5' phosphate on Kbfor
- binding result (NF-kB p50 [2]): binds
